Data: the RNAGym collection of RNA variant scans (doi:10.1073/pnas.2313332121)

B1: TPR t1 (parent)
chain: GACCAAUCUGCCCUCAGAGCUCGAGAACAUCUUCGGAUGCAGAGGAGGCAGGCUUCGGUGGCGCGAUAGCGCCAACGUCCUCAACCUCCAAUGCAUCCCACCACAUGAUGAUGCCUGAAGAGCCUUGGUUUUUUG

Variants of: B1
Experiment: polymerase ribozyme fitness, log enrichment relative to wild type (log ratio); higher = more active; in vitro selection for triplet polymerase activity
Outline: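 For each subunit of a heterodimeric triplet polymerase ribozyme, a mutant library was built by PCR and transcribed, then taken through a single in vitro selection round in triplicate. Selection involved annealing to a biotinylated primer, the partner subunit and triplets, incubation frozen at −7 °C, gel excision of extended constructs, capture on streptavidin beads and RT-PCR. Genotypes were retained after Illumina sequencing of inputs and outputs only with ≥10 input reads and ≥1 read in each output. Fitness is defined as the logarithm of a genotype's enrichment relative to wild-type enrichment, using inverse-variance-weighted averages across replicates, with the logarithm taken to base 2.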

| Variant | polymerase ribozyme fitness (log ratio) |
| --- | --- |
| GACCAAUCUGCCCCCAGAGCUCGAGCACAUCUUCGGAUGCAGAGGAGGCAGGCUUCGGUGGCGCGAUAGUGCCAACGACCUCUACCUCCAAUGCAUCCCACCACAUGAGGAAGCCUGAAGAGCCUUGGUUUUUUG [U14C A26C C70U U78A A83U U109G U112A] | -6.59 |
| GACCAAUCUGCCCCCAGAGCUCGAGAACAUCUUCGGAUGGAGAGGAGGGAGGCUUCGGUGGCGCGAUAGCGCCAACGUCCUCAACCUCCAAUGCAUCCCACCACAUGAUGAUGCCUGAAGAGCCUUGGUUUUUUG [U14C C40G C49G] | -3.41 |
| GACCAAUCUGCCCCCAGAGCUCGAGAACAUCUUCGGAUGCAGAGGAGGCAGGCUCCGGUGGCGCGAUAGCGCCAACGUCCUCAACCUCCAAUGCAUCCCACCACAUGAUGAUGCCUUAAGAGCCUUGGUUUUGUG [U14C U55C G117U U133G] | -5.59 |
| GACCAAUCUGCCCCCAGAGCUCGAGAACAUCUUCGGAUGCAGAGGACGCAGGCUUCGGUGGCGCGAUAGCGCCAACGUCCUCAACCUCCAAUGCAUCCCACCACAUGAUGAUGCCUGAAGAGCCUUGGUUUUUUG [U14C G47C] | -2.99 |
| GACCAAUCUGCCCCCAGAGCUCGAGAACAUCUUCGGAUGCAGAGGAGGCAGGCUUCGGUGGCGCGAUAGCGCCAACGUCUUCAACCUCCAAUGCAUCCCACCACAUGAUGAUGCCUGAAGAGCCUUGGUUUUUUG [U14C C80U] | -2.7 |
| GACCAAUCUGCCCACAGAGCUCGAGAACAUCUUCGGAUGCAGAGGAGGCAGGCAUUGGUGGCGCGAUAGCGCCAACGUCCUCAACCUCCAAUGCAUCCCACCACAUGAUGAUGCCUGAAGAGCCUUGGUGUUUUG [U14A U54A C56U U130G] | -3.42 |
| GACCAAUCUGCCCCCAGAGCUCGAGAACAUCUUCGGAUGCAGAGGAGGCAGGCUUCAGUGGCGCGAUAGCGCCAACGUCCUCAACCUCCAAUGCAUUCCACCACAUGAUGAUGCCUGAAGAGCCUUGGUUUUUUG [U14C G57A C97U] | -3.84 |
| GACCAAUCUGCCCACAGAGCUCGAGAACAUCUUCGGAUGCAGAGGAGGCAGGCUUCGGUUGCGCGAUAGCGCCAACGCCCUCAACCUCCAAUGCAUCCCACCACAUGAUGAUGCCUGAAGAGCCUUGGUUUUUUG [U14A G60U U78C] | -3.65 |
| GACCAAUCUGCCCCCAGAGCUCGAGAACAUCUUCGGAUGCAGAGGAGGCAGGCUUCGGUGGCGCGAUAGCGACAACGUCCUCAACCUCCAAUGCAUCCCACCACAUGAUGAUGCCUGAAGAGCCUUGGUUUUUUG [U14C C72A] | -0.983 |
| GACCAAUCUGCCCACAGAGCUCGAGAACAUCUUCGGAUGCAGAGGAGGCAGGCUUCGGUGGCACGAUAGCGCCAACGUCCUCAACCUCCAAUGCAUCCCACCACAUGAUGAUGCCUGAAGAGCCAUGGUUUUUUG [U14A G63A U125A] | -2.94 |
| GACCAAUCUGCCCCCAGAGCUCGAGAACAUCUUCGGCUGCAGAGGAGGCAGGCUUCGGUGGCGCGAUAGCGCCAACGUCCUCAACCUCCAAUGCAUCCCACCACAUGAUGAUGCCUGAAGAGCCUUGGUUUUUUG [U14C A37C] | -2.09 |
| GACCAAUCUGCCCCCAGAGCUCGAGAACAUGUGCGGAUGCAGAGGAGGCAGGCUUCGGUGGCGCUAUAGCGCCAACGUCCUCAACCUCCAAUGCUUCCCACCACAUGAUGAUGCCUUAAGAGCCUUGGUUUUUUG [U14C C31G U33G G65U A95U G117U] | -7.34 |
| GACCAAUCUGCCCACAGAGCUCGAGAACAUCUUCGGAUGCAGAGGAGGCAGGCUUCGGUGGCCCGAUAGCGCCAACGUCCUUAACCUCCAAUGCAUCCCACCACAUGAUGAUGCCUGAAGAGCCUUGGUUUAUUG [U14A G63C C82U U132A] | -3.33 |
| GACCAAUCUGCCCCCAGGGCUCGAGAACAUCUUCGGAUGCAGAGGAGGCAGGCUUCGGUGGCACGAUAGCGCCAACGCCCUCAACCUCCAAUGCAUCCCACCACAUGAUGAUGCCUUAAGAGCCUUGGUUUUUUG [U14C A18G G63A U78C G117U] | -5.13 |
| GACCAAUCUGCCCACAGAGCUCGAGAACAUCUUCGGAUGCAGAGGAGGCAGGCUUCGGUGGCGCGAUAGCGCCAACGUCCUCAACCUCCAAUGCAUCCCACCACAUGAUGAUGCCUGAAGAGCCGUGGUUUUUUG [U14A U125G] | -3.25 |
| GACCAAUCUGCCCACAGAGCUCGAGAACAUCUUCGGAUGCAGAGGAGGCAGGCUUCGGUGGCGCGAUAGCGCCAACGUCCUCAACCUCCAAUGCAUCCCACCACAUGAUGAUGCCUGAAGAGCCAUGGUUUUUUG [U14A U125A] | -2.3 |
| GACCAAUCUGCCCACAGAGCUCGAGAACAUCUUCGGAUGCAGAGGAGGCAGGCUUCGGUGUCGCGAUAGCGCCAACGUCCACAACCUCCAAUGCAUUCCACCACAUGAUGAUGCCUGAAGAGCCUUGGUUUUUUG [U14A G61U U81A C97U] | -3.36 |
| GACCAAUCUGCCCCCAGAGCUCGAGAACAUCUUCGGAUGCAGAGGAGGCAGGCUUCGGUGGCGCGAUAGCGCCAACGACAUCAACCUCCAAUGCAUCCCACCACAUGAUGAUGCCUGAAGAGCCUUGGUUUUUUG [U14C U78A C80A] | -4.98 |
| GACCAAUCUGCCCGCAGAGCUCGAGAACAUCUUCGGAUGCAGAGGAGGCUGGCUUUGGUGGCGCGAUAGCGCCAACGUCCUCAACCUCCAAUUCAUCCCACCACAUGAUGAAGCCUGAAGAGCCUUGGUUUUUUG [U14G A50U C56U G93U U112A] | -3.22 |
| GACCAAUCUGCCCCCAGUGCUCGAGAACAUCUUCGGAUGCAGAGGAGUCAGGCUUCGGUGGCGCGAUAGCACCAACGUCCUCAACCUCCAAUGCAUCCCACCACAUGAUGAUGCCUGAAGAGCCUUGGUUUUUUG [U14C A18U G48U G71A] | -6.1 |
| GACCAAUCUGCCCGCAGAGCUUGAGAACGUCUUCGGAUGCAGAGGAGGCAGGCUUCGGUGACGCGAUAGCGCCAACGUCCUCAACCUCCAAUGCAUCCCACCACAUGAUGAUGCCUGAAGAGCGUUGGCUUUUUG [U14G C22U A29G G61A C124G U129C] | -4.06 |
